Measurements: patent US20150087807A1

B1: recombinant murine single chain variable fragment of 1E4 (muscFv1E4) (scFv)
scFv: ECLEESGGGLVRPGNSLKLSCVTSGFTFSNYRVHWLRQPPGKRLEWIAVIAVKSDNYGANYAESVKGRFTISRDDSKSSVYLQMNRLREEDTATYYCRSTVVVMGDYFAMDYWGQGTSVTVSSGGGGSGGGGSGGGGSDIELTQSPAILSVSPGERVSFSCRASQNIGTYIHWYQQRTNGSPRLLIKYASESVSGIPSRFSGRGSGTDFTLSISSVESEDIADYYCQQSNTWPYTFGGGTKLEIKRADAAPTVSKLAAALEHHHHHH
B2: humanized single chain variable fragment of 1E4 (huscFv1E4) (scFv)
scFv: QCLVESGGGVVQPGRSLRLSCAASGFTFSNYRVHWVRQAPGKGLEWIAVIAVKSDNYGANYAESVKGRFTISRDNSKNTLYLQMNSLRAEDTAVYYCRSTVVVMGDYFAMDYWGQGTSVTVSSGGGGSGGGGSGGGGSDIVLTQSPAFLSVTPGEKVTITCRASQNIGTYIHWYQQKPDQAPKLLIKYASESVSGVPSRFSGSGSGTDFTFTISSLEAEDAATYYCQQSNTWPYTFGGGTKLEIKRADAAPTVSKLAAALEHHHHHH

Target: synthetic mimetic peptide m1E41920
Experiment: indirect ELISA, m1E41920 peptide coated, nonlinear regression (GraphPad Prism)

Binder	EC50
B1	73.1 nM
B2	62.3 nM
